“And” between values parts separate entries of the source, which are not always exact repeats. Identical values can stand only once.
Tests used:
[1] = biological target: the molecule itself; test: native gel or EMSA; native-PAGE of purified rPG_0686 / SEC fractions, with immunoblot
[2] = biological target: the molecule itself; test: SEC; Superdex 200 10/300 GL, 100 uL of 0.2 mg/mL rPG_0686, mobile phase 0.15 M ammonium bicarbonate, 0.1 mL/min; sizes calculated against Bio-Rad 1511901 protein standard

B1: recombinant PG_0686 (rPG_0686) protein of Porphyromonas gingivalis W83 (enzyme, UniProt Q7MWD6 1-517, looked up)
chain: MQVIKTNETFDSLDKSKLERMLDIKEAHREGHLTLEEAKERMKKEVGSISPEEFAAAEQLFKERDQDECQNEDVRTMLQLFEGLINPIRPDLPFGHPIDAYLRENDKAKELLDQADALLERTFIPNPWIELMETLMGYKLHFARKQNQLYSTLEQKGFDRPSTTMWTYDDHIRDEMNKAMSLLREKDYDSFPAAYKEMAIVLRDLMEKEELILYPTSLKLISDKEFEEMKHGDREIGFFLIDMPELDAPAKQSKEAHGQSFMAELGALLAKHGMGTGGQDDKAILDVAEGKLTLEQINLLFRHLPVDISFVDENELVCFYTDTKHRVFPRSKGVIGREVRNCHPPKSVHIVEEIIDKFRRGEQDRAEFWINKPGVFIYIVYVAIRDADGRFRGVMEMMQDCTRIRSLEGSRTLLTWDEEQSPAQGSKESESDTAGEDGIRPDTKLKSLLQRYPQLMDDLPTISSKFTLLRSPMAKVILPVATIKMMSERADIPSDMLIGKLESLIASYNKPDRSEEK
notes: PG_0686, hypothetical protein / diguanylate cyclase of Porphyromonas gingivalis W83; 517 amino acids, 60 kDa; the ORF of the PG_0686 gene cloned in-frame into pEXP5-NT/TOPO; domains hemerythrin (96-215), PAS10 (297-402), DUF-1858 (421-497); Number of copies in the native oligomer differs by method (SEC: decamer and pentamer; native-PAGE: octamer and tetramer); The vector pEXP5-NT/TOPO probably …
In the case of B1, the “stoichiometry N” value [1] is reported as 8 and 4 and the “stoichiometry N” value [2] is reported as 10 and 5.

From PMC10101095, “The Oxidative Stress-Induced Hypothetical Protein PG_0686 in Porphyromonas gingivalis W83 Is a Novel Diguanylate Cyclase” (Microbiology Spectrum, 2023)
